Reference: publication PMC11326279 (bioRxiv, 2024)

Target: FtsH with a C-terminal FLAG epitope, chromosomally encoded (E. coli, UniProt P0AAI3 1-644)
Assay: cryo-EM structure

Chain of FtsH with a C-terminal FLAG epitope, chromosomally encoded (P0AAI3 whole entry): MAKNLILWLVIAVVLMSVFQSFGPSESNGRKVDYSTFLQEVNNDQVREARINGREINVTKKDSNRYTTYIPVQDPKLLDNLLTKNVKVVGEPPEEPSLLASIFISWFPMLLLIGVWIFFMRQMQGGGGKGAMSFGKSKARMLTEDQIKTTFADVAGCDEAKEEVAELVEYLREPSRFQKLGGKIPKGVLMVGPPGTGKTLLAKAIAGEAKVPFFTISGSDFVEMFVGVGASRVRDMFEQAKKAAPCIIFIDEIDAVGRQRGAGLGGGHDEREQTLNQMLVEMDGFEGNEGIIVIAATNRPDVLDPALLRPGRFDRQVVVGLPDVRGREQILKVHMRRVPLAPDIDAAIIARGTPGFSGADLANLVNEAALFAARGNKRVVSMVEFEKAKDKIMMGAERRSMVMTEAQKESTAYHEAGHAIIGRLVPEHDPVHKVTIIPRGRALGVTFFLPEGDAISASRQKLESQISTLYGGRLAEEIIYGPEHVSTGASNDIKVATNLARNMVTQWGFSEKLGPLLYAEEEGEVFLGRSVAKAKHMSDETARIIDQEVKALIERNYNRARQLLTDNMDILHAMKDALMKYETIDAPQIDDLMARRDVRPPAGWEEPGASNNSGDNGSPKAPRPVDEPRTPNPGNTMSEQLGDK

| Binder | binding result |
| --- | --- |
| HflK, endogenous (natural protein, E. coli (endogenous in BL21(DE3)), UniProt P0ABC7 1-419, looked up) MAWNQPGNNGQDRDPWGSSKPGGNSEGNGNKGGRDQGPPDLDDIFRKLSKKLGGLGGGKGTGSGGGSSSQGPRPQLGGRVVTIAAAAIVIIWAASGFYTIKEAERGVVTRFGKFSHLVEPGLNWKPTFIDEVKPVNVEAVRELAASGVMLTSDENVVRVEMNVQYRVTNPEKYLYSVTSPDDSLRQATDSALRGVIGKYTMDRILTEGRTVIRSDTQRELEETIRPYDMGITLLDVNFQAARPPEEVKAAFDDAIAARENEQQYIREAEAYTNEVQPRANGQAQRILEEARAYKAQTILEAQGEVARFAKLLPEYKAAPEITRERLYIETMEKVLGNTRKVLVNDKGGNLMVLPLDQMLKGGNAPAAKSDNGASNLLRLPPASSSTTSGASNTSSTSQGDIMDQRRANAQRNDYQRQGE | binds |
| HflC, endogenous (natural protein, E. coli (endogenous in BL21(DE3)), UniProt P0ABC3 1-334, looked up) MRKSVIAIIIIVLVVLYMSVFVVKEGERGITLRFGKVLRDDDNKPLVYEPGLHFKIPFIETVKMLDARIQTMDNQADRFVTKEKKDLIVDSYIKWRISDFSRYYLATGGGDISQAEVLLKRKFSDRLRSEIGRLDVKDIVTDSRGRLTLEVRDALNSGSAGTEDEVTTPAADNAIAEAAERVTAETKGKVPVINPNSMAALGIEVVDVRIKQINLPTEVSEAIYNRMRAEREAVARRHRSQGQEEAEKLRATADYEVTRTLAEAERQGRIMRGEGDAEAAKLFADAFSKDPDFYAFIRSLRAYENSFSGNQDVMVMSPDSDFFRYMKTPTSATR | binds |
